Numbering of substitutions follows the chain as printed.
T1: human IL-11 (human, UniProt P20809 22-199)
T1 sequence: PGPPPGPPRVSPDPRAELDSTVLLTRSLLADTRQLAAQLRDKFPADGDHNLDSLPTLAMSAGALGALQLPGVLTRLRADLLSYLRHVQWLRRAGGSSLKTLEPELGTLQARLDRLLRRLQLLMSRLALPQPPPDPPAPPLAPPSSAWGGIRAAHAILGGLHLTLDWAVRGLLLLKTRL

T2: murine IL-11 (mouse, UniProt P47873 22-199)
T2 sequence: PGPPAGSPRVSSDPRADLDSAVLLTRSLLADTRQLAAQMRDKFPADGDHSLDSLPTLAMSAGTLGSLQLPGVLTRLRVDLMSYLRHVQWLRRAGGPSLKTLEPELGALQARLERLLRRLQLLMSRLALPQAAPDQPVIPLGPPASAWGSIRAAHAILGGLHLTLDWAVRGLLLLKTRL

T3: human IL2Ra (human, UniProt P01589 22-240, limits assumed)
T3 construct: bought protein, coated on the plate; also called hIL2RA; IL-2 receptor alpha
T3 sequence (looked up): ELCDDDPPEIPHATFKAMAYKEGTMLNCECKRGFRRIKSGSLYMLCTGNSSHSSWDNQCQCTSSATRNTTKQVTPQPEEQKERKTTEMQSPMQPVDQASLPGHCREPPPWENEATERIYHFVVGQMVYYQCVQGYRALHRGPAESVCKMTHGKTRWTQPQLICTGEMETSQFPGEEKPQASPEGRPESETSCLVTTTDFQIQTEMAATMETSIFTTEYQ

B1: TPP-26295 (antibody, V domains shown)
VH: EVQLLESGGGLVQPGGSLRLSCAASGFTFSSYGMHWVRQAPGKGLEWVSVISYDGSYKYYADSVKGRFTISRDNSKNTLYLQMNSLRAEDTAVYYCAAGVPDYWGQGTLVTVSS
VL: QSVLTQPPSASGTPGQRVTISCTGSSSNIGAGYDVHWYQQLPGTAPKLLIYSNNERPSGVPDRFSGSKSGTSASLAISGLRSEDEADYYCAAWDHSLNGPVFGGGTKLTVL
B2: TPP-26318 (antibody, V domains shown)
VH: B1 VH
VL: B1 VL with D34F, H95D
B3: TPP-26307 (antibody, V domains shown)
VH: B1 VH
VL: B1 VL with H95I
B4: TPP-26319 (antibody, V domains shown)
VH: B1 VH
VL: B1 VL with R56K, H95D
B5: TPP-26304 (antibody, V domains shown)
VH: B1 VH
VL: B1 VL with G30W, H95D
B6: TPP-26308 (antibody, V domains shown)
VH: B1 VH
VL: B1 VL with H95V
B7: TPP-26314 (antibody, V domains shown)
VH: B1 VH
VL: B1 VL with H95W
B8: TPP-26298 (antibody, V domains shown)
VH: B1 VH
VL: B1 VL with T23L, H95D
B9: TPP-26310 (antibody, V domains shown)
VH: B1 VH
VL: B1 VL with S58W, H95D
B10: TPP-26306 (antibody, V domains shown)
VH: B1 VH
VL: B1 VL with H95Q
B11: TPP-26309 (antibody, V domains shown)
VH: B1 VH
VL: B1 VL with H95F
B12: TPP-26317 (antibody, V domains shown)
VH: B1 VH
VL: B1 VL with G32E, H95D
B13: TPP-26315 (antibody, V domains shown)
VH: B1 VH
VL: B1 VL with G32H, H95D
B14: TPP-26299 (antibody, V domains shown)
VH: B1 VH
VL: B1 VL with H95D, N98Y
B15: TPP-26297 (antibody, V domains shown)
VH: B1 VH
VL: B1 VL with D94Q, H95D
B16: TPP-26313 (antibody, V domains shown)
VH: B1 VH
VL: B1 VL with G32Y, H95D
B17: TPP-26320 (antibody, V domains shown)
VH: B1 VH
VL: B1 VL with N54E, H95D
B18: TPP-26311 (antibody, V domains shown)
VH: B1 VH
VL: B1 VL with V35H, H95D
B19: TPP-26316 (antibody, V domains shown)
VH: B1 VH
VL: B1 VL with H95M
B20: TPP-26302 (antibody, V domains shown)
VH: B1 VH
VL: B1 VL with A91S, H95D
B21: TPP-26296 (antibody, V domains shown)
VH: B1 VH
VL: B1 VL with H95N
B22: TPP-26300 (antibody, V domains shown)
VH: B1 VH
VL: B1 VL with H95S
B23: TPP-26303 (antibody, V domains shown)
VH: B1 VH
VL: B1 VL with S58E, H95D
B24: TPP-26321 (antibody, V domains shown)
VH: B1 VH
VL: B1 VL with H95L

Biological target: T1, human IL-11
Experiment: cell-based or functional assay

Binder	RGA Efficacy (%)	RGA IC50
B1	69.2%	13 nM
B2	45.9%	2.4 nM
B3	52.7%	5.3 nM
B4	48.6%	7.4 nM
B5	70.4%	5.9 nM
B6	63.6%	5.9 nM
B7	69.3%	1.1 nM
B8	62.9%	4.1 nM
B9	59.5%	4.5 nM
B10	70%	2.2 nM
B11	63.9%	1.5 nM
B12	69.9%	0.99 nM
B13	68.3%	1.7 nM
B14	70.1%	3.1 nM
B15	57.1%	3.7 nM
B16	76.1%	1.7 nM
B17	70.3%	7.4 nM
B18	38.1%	1.9 nM
B19	69.4%	1.6 nM
B20	65.8%	22 nM
B21	71%	20 nM
B22	75.5%	3.3 nM
B23	70.2%	22 nM
B24	71.3%	2.1 nM

Biological target: T2, murine IL-11
Experiment: cell-based or functional assay

Binder	RGA Efficacy (%)	RGA IC50
B1	93.9%	2.1 nM
B2	82.3%	4.7 nM
B3	92.3%	1.9 nM
B4	91.1%	1.5 nM
B5	95.2%	1.2 nM
B6	91.6%	1.3 nM
B7	94.4%	0.8 nM
B8	96.3%	1.5 nM
B9	94.3%	1.1 nM
B10	96.4%	1.5 nM
B11	92.2%	0.94 nM
B12	93.2%	1.2 nM
B13	91.5%	1.5 nM
B14	96.9%	0.94 nM
B15	93.5%	1.8 nM
B16	96.2%	0.66 nM
B17	100%	1.5 nM
B18	86.2%	2.2 nM
B19	90.4%	1 nM
B20	94.3%	1.1 nM
B21	93.1%	2.9 nM
B22	94.9%	1.1 nM
B23	95.7%	2.3 nM
B24	93.5%	1.1 nM

Biological target: T3, human IL2Ra
Experiment: IL2Ra direct binding ELISA, signal ratio to isotype control
Experimental: IL2RA (Peprotech, Germany, #200-02RC) was coated at 1 or 0 μg/ml (buffer only control) in 30 μl coating buffer (Candor, #113500) per well on a 384 well microtiter plate (Maxisorb, Nunc, #460518) over night at 4-8° C. After two washes with 50 μl/well washing buffer (PBS+0.05% Tween, pH 7.4), the plates were incubated for two hours at room temperature with 50 μl/well SmartBlock (Candor, #113500). After blocking, the plates were washed three times with washing buffer. Then, a dilution series of the respective antibody (1E-7 [M] down to 2E-13 [M]) in PBS+0.05% Tween, 10% SmartBlock were added in 30 μl to the microtiter plate and incubated for 90 min at room temperature. After three additional washes, 30 μl anti mouse IgG HRP-conjugated antibody (Biotechne, HAF007), diluted 1:1000 in PBS+0.05% Tween (pH 7.4), were added per well and incubated for one hour. After three additional washes, a mixture of Amplex red (Invitrogen, #12222, 10 mM stock solution in DMSO) 1:1000 diluted in PBS and H2O2 (30%, Merck, #107209)) diluted 1:10000 in PBS were added as substrate with 30 μl per well and incubated for 20 min in the dark. Relative fluorescence was measured with a microtiter plate reader at 535/590 nm.
Next, the 42 antibodies were subjected to an IL2Ra binding ELISA as described in Example 20.

Binder	hIL2RA ELISA Binding: Ratio to Isotpye
B1	385 ratio
B2	267 ratio
B3	176 ratio
B4	235 ratio
B5	436 ratio
B6	188 ratio
B7	455 ratio
B8	474 ratio
B9	231 ratio
B10	232 ratio
B11	234 ratio
B12	31 ratio
B13	205 ratio
B14	96 ratio
B15	183 ratio
B16	195 ratio
B17	260 ratio
B18	292 ratio
B19	221 ratio
B20	522 ratio
B21	379 ratio
B22	447 ratio
B23	481 ratio
B24	182 ratio

Reference: patent US20240317847A1 (Bayer, published 2024)
